The text below walks through data of patent publication US20090311271A1.

The target of assay [1] is human LOX-1 expressed on the cell surface (human) (UniProt P78380). Put plainly: flow cytometry, DI-oxLDL on CHO/LOX-1 cells.
Assay [2] has the same target. Put plainly: flow cytometry: DI-oxLDL (0-100 ug/ml) on CHO/LOX-1 cells, 60 min at 4 C, MFI.
For assay [3] the target is unchanged. Put plainly: flow cytometry: DI-oxLDL (0-100 ug/ml) on CHO/LOX-1 cells, 60 min at 4 C; y axis MFI Signal. (In flow cytometry, cells or beads pass a laser one at a time.)
For assay [4], the target named is purified recombinant human LOX1 comprised of the extracellular domain (ECD) of human LOX-1 (amino acids 61-273) with an N-terminal polyhistidine tag (human) (UniProt P78380). Put plainly: AlphaScreen competition on His-LOX-1, unlabelled competitor titrated; labelled ligand biotin-CRP (1 ug/ml) with His-LOX-1 (1 ug/ml) by the panel list of paragraph 265; later sentences of paragraph 265 cite 2B and 2C the other way and the sheet prints no title.

By Kd is commonly meant the concentration at which binding is half-saturated. For the substance Human oxidized LDL, the dissociation constant Kd in assay [1] and in assay [2] was 22 µg/mL throughout. In assay [3], this substance displayed a Bmax of 96.6. Moreover, the IC50 (read off the curve) in assay [4] was 0.2 µg/mL.
